Measurements taken from patent US20260250420A1 (SICHUAN KELUN BIOTECH BIOPHARMACEUTICAL, published 2026).
Values belong to the binder of their own block, whether it stands above or below them.

How the values were obtained:
[1] = molecular target: T1, mouse PTK7 protein (extracellular sequence of mouse PTK7 with C-terminal 6×His tag) (mouse, UniProt Q8BKG3 23-696); assay: BLI (ForteBio), antibody on Protein A sensor
T1 construct: extracellular domain; Expressed transiently in HEK293 cells
T1 sequence: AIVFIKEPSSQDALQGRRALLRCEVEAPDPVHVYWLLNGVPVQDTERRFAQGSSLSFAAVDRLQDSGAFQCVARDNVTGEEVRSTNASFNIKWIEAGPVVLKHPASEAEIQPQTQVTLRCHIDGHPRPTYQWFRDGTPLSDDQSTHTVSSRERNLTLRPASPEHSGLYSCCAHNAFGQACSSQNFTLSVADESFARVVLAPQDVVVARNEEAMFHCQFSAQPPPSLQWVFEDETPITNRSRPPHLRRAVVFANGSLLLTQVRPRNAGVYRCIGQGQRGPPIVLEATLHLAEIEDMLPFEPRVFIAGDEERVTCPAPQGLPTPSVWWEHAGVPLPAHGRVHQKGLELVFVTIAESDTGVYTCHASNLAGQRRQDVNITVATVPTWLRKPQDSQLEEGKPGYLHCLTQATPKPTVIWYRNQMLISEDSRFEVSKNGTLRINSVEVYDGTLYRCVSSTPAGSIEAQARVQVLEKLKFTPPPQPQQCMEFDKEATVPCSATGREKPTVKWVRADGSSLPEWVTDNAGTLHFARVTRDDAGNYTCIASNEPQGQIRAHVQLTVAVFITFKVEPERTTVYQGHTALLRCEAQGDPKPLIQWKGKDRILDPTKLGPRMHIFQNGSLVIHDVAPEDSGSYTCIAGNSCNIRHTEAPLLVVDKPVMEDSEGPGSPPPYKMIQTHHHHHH
From the text: The dynamic affinity of the control Hu24 and candidate antibodies 64A10HZ, 101A6HZ, 4E12HZ and 19C2HZ with human PTK7-His was detected by using ForteBio (Pall life sciences).
(§1) ELISA and ForteBio were adopted to detect binding of the anti-human PTK7 chimeric and humanized antibodies to the monkey, mouse and rat PTK7 proteins.

[2] = molecular target: T2, human PTK7 protein (extracellular sequence of human PTK7 with C-terminal 6×His tag) (human, UniProt Q13308 31-704); assay: competition ELISA on coated human PTK7 protein; competitor: biotin-labelled 101A6HZ at a fixed concentration
T2 construct: extracellular domain; Expressed transiently in HEK293 cells; also called human PTK7-His; human PTK7-His protein
T2 sequence: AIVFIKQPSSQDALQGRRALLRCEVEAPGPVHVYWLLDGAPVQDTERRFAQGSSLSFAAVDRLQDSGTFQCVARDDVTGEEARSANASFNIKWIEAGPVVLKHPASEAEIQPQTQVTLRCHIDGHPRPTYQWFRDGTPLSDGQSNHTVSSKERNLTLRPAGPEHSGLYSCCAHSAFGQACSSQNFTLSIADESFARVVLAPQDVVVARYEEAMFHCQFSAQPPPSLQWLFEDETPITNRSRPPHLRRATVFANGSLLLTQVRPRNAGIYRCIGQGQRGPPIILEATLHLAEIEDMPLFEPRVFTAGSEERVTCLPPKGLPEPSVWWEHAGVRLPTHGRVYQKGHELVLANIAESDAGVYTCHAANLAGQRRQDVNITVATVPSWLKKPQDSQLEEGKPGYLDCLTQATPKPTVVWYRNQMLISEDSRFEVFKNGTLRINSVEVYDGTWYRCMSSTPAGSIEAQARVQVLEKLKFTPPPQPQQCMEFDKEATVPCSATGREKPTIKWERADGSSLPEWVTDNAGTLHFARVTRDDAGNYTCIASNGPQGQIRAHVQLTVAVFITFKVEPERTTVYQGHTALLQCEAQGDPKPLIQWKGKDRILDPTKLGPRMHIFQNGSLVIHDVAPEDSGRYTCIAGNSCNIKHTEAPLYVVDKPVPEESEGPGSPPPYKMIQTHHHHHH
Method: (§2) The human PTK7 protein was diluted to reach 1 μg/ml by using the CBS coating liquid, coated by a 96-well microtiter plate at a density of 100 μl/well, and stood overnight at 4° C.; and after the plate was washed and blocked, the biotin-labeled antibody and the to-be-detected antibody were added, and incubated for 2 h at room temperature. After the plate was washed, the secondary antibody was added for incubation, and finally was subjected to color development, then the reaction was terminated, and the absorbance at OD₄₅₀ nm was read by the microplate reader. The original data was imported into software for nonlinear curve fitting (four parameters).

[3] = molecular target: T2, human PTK7 protein (extracellular …); assay: ELISA, coated human PTK7 protein 1 µg/ml
Method: (§3) Original data was imported into software for nonlinear curve fitting, and EC₅₀ of binding of each antibody to human PTK7 and monkey PTK7 was calculated, respectively. As shown in Table 1 and FIGS. 1A-1B, the screened antibodies could be bound to the human and monkey PTK7 proteins with affinity higher than that of the control antibody Hu24.

[4] = molecular target: T1, mouse PTK7 protein (extracellular …); assay: ELISA, coated mouse PTK7 protein
Method: as §3, §1

[5] = molecular target: T2, human PTK7 protein (extracellular …); assay: competition ELISA on coated human PTK7 protein; competitor: biotin-labelled 64A10HZ at a fixed concentration
Method: as §2

binding result [1]: no binding | IC50 (read off the curve) [2]: ~0.08 µg/mL
B1: 101A6HZ (anti-human PTK7 humanized antibody) (antibody, human IgG1, kappa)
heavy: not shown
light: DIVMTQSPDSLAVSLGERATINCKASQDVGSAVIWYQQKPGQSPKLLIYWASTRHTGVPDRFSGSGSGTDFTLTISSLQAEDVAVYYCQQYSSYPLTFGQGTKLEIKRTVAAPSVFIFPPSDEQLKSGTASVVCLLNNFYPREAKVQWKVDNALQSGNSQESVTEQDSKDSTYSLSSTLTLSKADYEKHKVYACEVTHQGLSSPVTKSFNRGEC

EC50 [3]: 0.0457 µg/mL
B2: Hu24 (PTK7 control antibody, taken from Hu24 in the Patent CN201580030255) (antibody)
chain 1: QVQLVQSGPEVKKPGASVKVSCKASGYTFTDYAVHWVRQAPGKRLEWIGVISTYNDYTYNNQDFKGRVTMTRDTSASTAYMELSRLRSEDTAVYYCARGNSYFYALDYWGQGTSVTVSS
chain 2: EIVLTQSPATLSLSPGERATLSCRASESVDSYGKSFMHWYQQKPGQAPRLLIYRASNLESGIPARFSGSGSGTDFTLTISSLEPEDFAVYYCQQSNEDPWTFGGGTKLEIK

binding result [4]: no binding | IC50 (read off the curve) [5]: ~0.2 µg/mL
B3: 64A10HZ (anti-human PTK7 humanized antibody) (antibody, human IgG1, kappa, V domains shown)
VH: QVQLQESGPGLVKPSETLSLTCTVSGFSLTSYGVYWVRQPPGKGPEWLGVIWTSGNTNYNPSLKSRLTISKDNSKNQVSLKLSSVTAADTAVYYCVKHDGGNYVGVMNYWGQGTLVTVSS
VL: EIVMTQSPDFQSVTPKEKVTITCRASQSISDYLHWYQQKPDQSPKLLIKYASQSISGVPSRFSGSGSGSDFTLTINSLEAEDAATYYCQNGHSFPPTFGQGTKLEIKR
notes: Human IgG1 heavy chain constant region and human Kappa light chain constant region; expressed in CHO-S cells
